{"source": "patent US20220411504A1", "about": "(Janssen / Centocor, published 2022)", "key": {"[1]": {"target": "T1, HLA-G on cells (K562-HLA-G and HLA-G expressing tumor cells) (human)", "assay": "cell-based or functional assay"}, "[2]": {"target": "T2, Human CD3 epsilon (CD3ε) of the T cell receptor complex on cells (human, UniProt P07766 23-207)", "T2 construct": "On Jurkat cells and primary human (pan) T cells; also called T-cell surface glycoprotein CD3 epsilon chain; T3E", "T2 sequence (P07766 23-207 limits assumed, one chain of several)": "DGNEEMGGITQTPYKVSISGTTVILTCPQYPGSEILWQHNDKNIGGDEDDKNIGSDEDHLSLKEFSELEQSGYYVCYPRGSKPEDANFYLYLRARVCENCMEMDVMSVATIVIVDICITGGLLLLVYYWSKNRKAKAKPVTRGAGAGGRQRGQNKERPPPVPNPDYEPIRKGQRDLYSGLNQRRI", "assay": "T cell binding (method not described)"}, "[3]": {"target": "T1, HLA-G on cells (K562-HLA-G and HLA-G …)", "assay": "K562-HLA-G cell binding (method not described)"}, "[4]": {"target": "T3, DLL3 on tumor cells (SHP-77, HCC1833, G361) (human, UniProt Q9NYJ7 27-618)", "T3 sequence": "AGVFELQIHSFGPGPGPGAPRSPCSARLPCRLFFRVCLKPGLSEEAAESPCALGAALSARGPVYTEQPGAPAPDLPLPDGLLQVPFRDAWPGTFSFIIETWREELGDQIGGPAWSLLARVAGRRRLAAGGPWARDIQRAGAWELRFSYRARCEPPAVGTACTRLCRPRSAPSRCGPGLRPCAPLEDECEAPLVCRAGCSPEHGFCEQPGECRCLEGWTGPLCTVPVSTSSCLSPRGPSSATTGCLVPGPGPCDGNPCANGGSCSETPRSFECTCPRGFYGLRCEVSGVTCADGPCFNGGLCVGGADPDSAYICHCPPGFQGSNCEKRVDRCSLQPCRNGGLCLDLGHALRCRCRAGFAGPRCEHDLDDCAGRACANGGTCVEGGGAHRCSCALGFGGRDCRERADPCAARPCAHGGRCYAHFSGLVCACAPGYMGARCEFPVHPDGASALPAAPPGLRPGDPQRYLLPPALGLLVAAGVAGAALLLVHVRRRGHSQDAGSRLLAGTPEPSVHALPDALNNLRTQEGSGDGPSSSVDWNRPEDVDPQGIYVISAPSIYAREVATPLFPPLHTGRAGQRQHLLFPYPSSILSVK", "assay": "cell-based or functional assay"}, "[5]": {"target": "T2, Human CD3 epsilon (CD3ε) of the T cell …", "assay": "flow cytometry on human pan T cells"}, "recombinant human DLL3 [6]": {"target": "T4, recombinant human DLL3 (human, UniProt Q9NYJ7 27-492)", "T4 construct": "also called DLL3 antigen; Delta-like protein 3", "T4 sequence": "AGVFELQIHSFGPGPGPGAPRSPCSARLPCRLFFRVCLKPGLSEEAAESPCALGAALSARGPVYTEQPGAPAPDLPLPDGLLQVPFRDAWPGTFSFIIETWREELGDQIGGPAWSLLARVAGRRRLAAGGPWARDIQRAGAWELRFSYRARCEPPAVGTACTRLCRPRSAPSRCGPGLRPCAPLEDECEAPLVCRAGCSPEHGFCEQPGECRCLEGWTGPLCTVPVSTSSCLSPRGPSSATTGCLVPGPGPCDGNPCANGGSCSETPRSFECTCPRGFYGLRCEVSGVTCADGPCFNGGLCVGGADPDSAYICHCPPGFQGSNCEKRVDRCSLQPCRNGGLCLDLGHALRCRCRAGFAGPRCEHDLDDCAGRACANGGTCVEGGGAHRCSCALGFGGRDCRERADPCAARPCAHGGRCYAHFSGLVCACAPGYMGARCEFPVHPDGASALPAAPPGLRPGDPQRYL", "assay": "SPR (Biacore T200), antibody captured by goat anti-Fc, DLL3 titrated"}, "recombinant human DLL3 [7]": {"target": "T4, recombinant human DLL3", "assay": "SPR (Biacore T200), antibody captured by goat anti-Fc, DLL3 titrated", "remark": "listed apart in the source"}}, "note": "Like-named read-outs stand apart in the source and are kept apart here."}
{"binder": "HC3B125 (bispecific antibody, human IgG1, lambda, L234A L235A, No codon for C-terminal K447; also called CD3B376-Fab-Fc x MHGB732-LH-scFv-Fc; HCB125) heavy: QVQLQQSGPRLVRPSQTLSLTCAISGDSVFNNNAAWSWIRQSPSRGLEWLGRTYYRSKWLYDYAVSVKSRITVNPDTSRNQFTLQLNSVTPEDTALYYCARGYSSSFDYWGQGTLVTVSSASTKGPSVFPLAPSSKSTSGGTAALGCLVKDYFPEPVTVSWNSGALTSGVHTFPAVLQSSGLYSLSSVVTVPSSSLGTQTYICNVNHKPSNTKVDKKVEPKSCDKTHTCPPCPAPEAAGGPSVFLFPPKPKDTLMISRTPEVTCVVVSVSHEDPEVKFNWYVDGVEVHNAKTKPREEQYNSTYRVVSVLTVLHQDWLNGKEYKCKVSNKALPAPIEKTISKAKGQPREPQVYVYPPSREEMTKNQVSLTCLVKGFYPSDIAVEWESNGQPENNYKTTPPVLDSDGSFALVSKLTVDKSRWQQGNVFSCSVMHEALHNHYTQKSLSLSPG light: QSALTQPASVSGSPGQSITISCTGTSSNIGTYKFVSWYQQHPDKAPKVLLYEVSKRPSGVSSRFSGSKSGNTASLTISGLQAEDQADYHCVSYAGSGTLLFGGGTKLTVLGQPKAAPSVTLFPPSSEELQANKATLVCLISDFYPGAVTVAWKADSSPVKAGVETTTPSKQSNNKYAASSYLSLTPEQWKSHRSYSCQVTHEGSTVEKTVAPTECS scFv: DIVMTQSPDSLAVSLGERATINCKSSQSVLHSSNNKNYLTWFQQKPGQPPKLLIYWASTRESGVPDRFSGSGSGTDFTLTISSLQAEDVAVYYCHQYYSTPPTFGQGTKVEIKGGSEGKSSGSGSESKSTGGSQVQLQQSGPGLVKPSQTLSLTCAISGDSVSSNSAAWNWIRQSPSRGLEWLGRTYYRSKWYNDYAVSVKSRITINPDTSKNQISLQLNSVTPEDTAVYYCAGDRRYGIVGLPFAYWGQGTLVTVSSEPKSSDKTHTCPPCPAPEAAGGPSVFLFPPKPKDTLMISRTPEVTCVVVSVSHEDPEVKFNWYVDGVEVHNAKTKPREEQYNSTYRVVSVLTVLHQDWLNGKEYKCKVSNKALPAPIEKTISKAKGQPREPQVYVLPPSREEMTKNQVSLLCLVKGFYPSDIAVEWESNGQPENNYLTWPPVLDSDGSFFLYSKLTVDKSRWQQGNVFSCSVMHEALHNHYTQKSLSLSPG", "values": [{"measurement": "Cytotoxicity, EC50 (T cell-mediated, NCI-H2009-b2m target cells, 72 hr)", "setting": "[1]", "value": 0.0565, "unit": "nM"}, {"measurement": "EC50", "setting": "[2]", "value": 60, "unit": "nM"}, {"measurement": "EC50", "setting": "[3]", "value": 12, "unit": "nM"}]}
{"binder": "DL3B585 (bispecific antibody, human IgG1, lambda, L234A L235A, also called CD3B376-Fab; DL3B279-LH-scFv) scFv: DIQMTQSPSSLSASVGDRVTITCRASQGISNYLAWFQQKPGKAPKSLIYAASSLQSGVPSKFSGSGSGTDFTLTISSLQPEDFATYYCQQYNSYPYTFAQGTKLEIKGGSEGKSSGSGSESKSTGGSQVQLVQSGAEVKKPGASVKVSCKASGNTFTNYYIHWVRQAPGQGLEWMGIINPSGGSTSYAQKLQGRMTMTRDTSTSTVYMELSSLRSEDTAVYFCARQGPFIGDAFDIWGQGTMVTVSSEPKSSDKTHTCPPCPAPEAAGGPSVFLFPPKPKDTLMISRTPEVTCVVVSVSHEDPEVKFNWYVDGVEVHNAKTKPREEQYNSTYRVVSVLTVLHQDWLNGKEYKCKVSNKALPAPIEKTISKAKGQPREPQVYVLPPSREEMTKNQVSLLCLVKGFYPSDIAVEWESNGQPENNYLTWPPVLDSDGSFFLYSKLTVDKSRWQQGNVFSCSVMHEALHNHYTQKSLSLS heavy: QVQLQQSGPRLVRPSQTLSLTCAISGDSVFNNNAAWSWIRQSPSRGLEWLGRTYYRSKWLYDYAVSVKSRITVNPDTSRNQFTLQLNSVTPEDTALYYCARGYSSSFDYWGQGTLVTVSSASTKGPSVFPLAPSSKSTSGGTAALGCLVKDYFPEPVTVSWNSGALTSGVHTFPAVLQSSGLYSLSSVVTVPSSSLGTQTYICNVNHKPSNTKVDKKVEPKSCDKTHTCPPCPAPEAAGGPSVFLFPPKPKDTLMISRTPEVTCVVVSVSHEDPEVKFNWYVDGVEVHNAKTKPREEQYNSTYRVVSVLTVLHQDWLNGKEYKCKVSNKALPAPIEKTISKAKGQPREPQVYVYPPSREEMTKNQVSLTCLVKGFYPSDIAVEWESNGQPENNYKTTPPVLDSDGSFALVSKLTVDKSRWQQGNVFSCSVMHEALHNHYTQKSLSLSPG light: QSALTQPASVSGSPGQSITISCTGTSSNIGTYKFVSWYQQHPDKAPKVLLYEVSKRPSGVSSRFSGSKSGNTASLTISGLQAEDQADYHCVSYAGSGTLLFGGGTKLTVLGQPKAAPSVTLFPPSSEELQANKATLVCLISDFYPGAVTVAWKADSSPVKAGVETTTPSKQSNNKYAASSYLSLTPEQWKSHRSYSCQVTHEGSTVEKTVAPTECS", "values": [{"measurement": "Cytotoxicity, % lysis of SHP-77 cells (whole PBMCs, 1:1 ET, 30 nM)", "setting": "[4]", "value": 58.1, "unit": "%"}, {"measurement": "binding result", "setting": "[5]", "value": "binds"}, {"measurement": "Kd", "setting": "recombinant human DLL3 [6]", "value": 0.024, "unit": "nM"}, {"measurement": "Kd", "setting": "recombinant human DLL3 [7]", "value": 0.024, "unit": "nM"}]}
{"binder": "HC3B258 (bispecific antibody, human IgG1, lambda, L234A L235A, Differs from HC3B125 only by a codon for the C-terminal lysine K447, which is processed; also called CD3B376-Fab-Fc x MHGB732-LH-scFv-Fc (with K447 codon)) heavy: QVQLQQSGPRLVRPSQTLSLTCAISGDSVFNNNAAWSWIRQSPSRGLEWLGRTYYRSKWLYDYAVSVKSRITVNPDTSRNQFTLQLNSVTPEDTALYYCARGYSSSFDYWGQGTLVTVSSASTKGPSVFPLAPSSKSTSGGTAALGCLVKDYFPEPVTVSWNSGALTSGVHTFPAVLQSSGLYSLSSVVTVPSSSLGTQTYICNVNHKPSNTKVDKKVEPKSCDKTHTCPPCPAPEAAGGPSVFLFPPKPKDTLMISRTPEVTCVVVSVSHEDPEVKFNWYVDGVEVHNAKTKPREEQYNSTYRVVSVLTVLHQDWLNGKEYKCKVSNKALPAPIEKTISKAKGQPREPQVYVYPPSREEMTKNQVSLTCLVKGFYPSDIAVEWESNGQPENNYKTTPPVLDSDGSFALVSKLTVDKSRWQQGNVFSCSVMHEALHNHYTQKSLSLSPG light: QSALTQPASVSGSPGQSITISCTGTSSNIGTYKFVSWYQQHPDKAPKVLLYEVSKRPSGVSSRFSGSKSGNTASLTISGLQAEDQADYHCVSYAGSGTLLFGGGTKLTVLGQPKAAPSVTLFPPSSEELQANKATLVCLISDFYPGAVTVAWKADSSPVKAGVETTTPSKQSNNKYAASSYLSLTPEQWKSHRSYSCQVTHEGSTVEKTVAPTECS scFv: DIVMTQSPDSLAVSLGERATINCKSSQSVLHSSNNKNYLTWFQQKPGQPPKLLIYWASTRESGVPDRFSGSGSGTDFTLTISSLQAEDVAVYYCHQYYSTPPTFGQGTKVEIKGGSEGKSSGSGSESKSTGGSQVQLQQSGPGLVKPSQTLSLTCAISGDSVSSNSAAWNWIRQSPSRGLEWLGRTYYRSKWYNDYAVSVKSRITINPDTSKNQISLQLNSVTPEDTAVYYCAGDRRYGIVGLPFAYWGQGTLVTVSSEPKSSDKTHTCPPCPAPEAAGGPSVFLFPPKPKDTLMISRTPEVTCVVVSVSHEDPEVKFNWYVDGVEVHNAKTKPREEQYNSTYRVVSVLTVLHQDWLNGKEYKCKVSNKALPAPIEKTISKAKGQPREPQVYVLPPSREEMTKNQVSLLCLVKGFYPSDIAVEWESNGQPENNYLTWPPVLDSDGSFFLYSKLTVDKSRWQQGNVFSCSVMHEALHNHYTQKSLSLSPG", "values": [{"measurement": "EC50", "setting": "[2]", "value": 60, "unit": "nM"}, {"measurement": "EC50", "setting": "[3]", "value": 11, "unit": "nM"}]}
{"binder": "D3C3B80 (bispecific antibody, human IgG1, lambda, L234A L235A, also called C3C3B80) scFv: DIQMTQSPSSLSASVGDRVTITCRASQGISNYLAWFQQKPGKAPKSLIYAASSLQSGVPSKFSGSGSGTDFTLTISSLQPEDFATYYCQQYNSYPYTFGQGTKLEIKGGSEGKSSGSGSESKSTGGSQVQLVQSGAEVKKPGASVKVSCKASGQTFTNYYIHWVRQAPGQGLEWMGIINPSGGSTSYAQKLQGRMTMTRDTSTSTVYMELSSLRSEDTAVYFCARQGPFIGDAFDIWGQGTTVTVSSEPKSSDKTHTCPPCPAPEAAGGPSVFLFPPKPKDTLMISRTPEVTCVVVSVSHEDPEVKFNWYVDGVEVHNAKTKPREEQYNSTYRVVSVLTVLHQDWLNGKEYKCKVSNKALPAPIEKTISKAKGQPREPQVYVLPPSREEMTKNQVSLLCLVKGFYPSDIAVEWESNGQPENNYLTWPPVLDSDGSFFLYSKLTVDKSRWQQGNVFSCSVMHEALHNHYTQKSLSLSPGK heavy: QVQLQQSGPRLVRPSQTLSLTCAISGDSVFNNNAAWSWIRQSPSRGLEWLGRTYYRSKWLYDYAVSVKSRITVNPDTSRNQFTLQLNSVTPEDTALYYCARGYSSSFDYWGQGTLVTVSSASTKGPSVFPLAPSSKSTSGGTAALGCLVKDYFPEPVTVSWNSGALTSGVHTFPAVLQSSGLYSLSSVVTVPSSSLGTQTYICNVNHKPSNTKVDKKVEPKSCDKTHTCPPCPAPEAAGGPSVFLFPPKPKDTLMISRTPEVTCVVVSVSHEDPEVKFNWYVDGVEVHNAKTKPREEQYNSTYRVVSVLTVLHQDWLNGKEYKCKVSNKALPAPIEKTISKAKGQPREPQVYVYPPSREEMTKNQVSLTCLVKGFYPSDIAVEWESNGQPENNYKTTPPVLDSDGSFALVSKLTVDKSRWQQGNVFSCSVMHEALHNHYTQKSLSLSPGK light: QSALTQPASVSGSPGQSITISCTGTSSNIGTYKFVSWYQQHPDKAPKVLLYEVSKRPSGVSSRFSGSKSGNTASLTISGLQAEDQADYHCVSYAGSGTLLFGGGTKLTVLGQPKAAPSVTLFPPSSEELQANKATLVCLISDFYPGAVTVAWKADSSPVKAGVETTTPSKQSNNKYAASSYLSLTPEQWKSHRSYSCQVTHEGSTVEKTVAPTECS", "values": [{"measurement": "binding result", "setting": "[5]", "value": "binds"}, {"measurement": "Kd", "setting": "recombinant human DLL3 [7]", "value": 0.033, "unit": "nM"}]}
